Changes are numbered by the printed parent chain. Names may count otherwise. Like-named read-outs stand apart in the source and are kept apart here.
T1: Ndi1 (Saccharomyces cerevisiae, UniProt P32340)
T1 construct: The mature Ndi1, which lacks a mitochondrial targeting; (His)10; made in house; host or cells: E. coli BL21(DE3)pLysS, plasmid pET16b(NDI1-m)
T1 sequence (P32340 27-513): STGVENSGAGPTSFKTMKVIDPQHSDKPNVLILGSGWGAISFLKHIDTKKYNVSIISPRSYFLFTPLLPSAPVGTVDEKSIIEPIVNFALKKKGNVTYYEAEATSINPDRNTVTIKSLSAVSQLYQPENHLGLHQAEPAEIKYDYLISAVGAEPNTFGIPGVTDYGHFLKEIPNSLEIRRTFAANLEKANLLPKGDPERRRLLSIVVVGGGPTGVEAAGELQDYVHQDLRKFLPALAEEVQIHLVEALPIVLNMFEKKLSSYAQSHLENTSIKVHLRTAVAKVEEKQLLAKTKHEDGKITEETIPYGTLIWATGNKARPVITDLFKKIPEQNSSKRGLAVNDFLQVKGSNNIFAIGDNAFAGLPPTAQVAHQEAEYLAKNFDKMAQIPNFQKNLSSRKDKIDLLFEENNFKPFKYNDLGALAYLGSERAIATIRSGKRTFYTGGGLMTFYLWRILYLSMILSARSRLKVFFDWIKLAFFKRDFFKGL

B1: Q394A: recombinant Ndi1 mutant Q394A (protein, UniProt P32340 27-513, looked up, variant Q394A)
Rotenone-insensitive …: T1 sequence (P32340 27-513) with Q368A
B2: Y482F: recombinant Ndi1 mutant Y482F (protein, UniProt P32340 27-513, looked up, variant Y482F)
Rotenone-insensitive …: T1 sequence (P32340 27-513) with Y456F
B3: R479A: recombinant Ndi1 mutant R479A (protein, UniProt P32340 27-513, looked up, variant R479A)
Rotenone-insensitive …: T1 sequence (P32340 27-513) with R453A
B4: Wild type: wild-type recombinant Saccharomyces cerevisiae Ndi1 (NADH dehydrogenase) (protein, UniProt P32340 27-513, looked up)
Rotenone-insensitive …: T1 sequence (P32340 27-513)
B5: R479I: recombinant Ndi1 mutant R479I (protein, UniProt P32340 27-513, looked up, variant R479I)
Rotenone-insensitive …: T1 sequence (P32340 27-513) with R453I
B6: I459N: recombinant Ndi1 mutant I459N (protein, UniProt P32340 27-513, looked up, variant I459N)
Rotenone-insensitive …: T1 sequence (P32340 27-513) with I433N
B7: L444N: recombinant Ndi1 mutant L444N (protein, UniProt P32340 27-513, looked up, variant L444N)
Rotenone-insensitive …: T1 sequence (P32340 27-513) with L418N
B8: R479H: recombinant Ndi1 mutant R479H (protein, UniProt P32340 27-513, looked up, variant R479H)
Rotenone-insensitive …: T1 sequence (P32340 27-513) with R453H
B9: R479K: recombinant Ndi1 mutant R479K (protein, UniProt P32340 27-513, looked up, variant R479K)
Rotenone-insensitive …: T1 sequence (P32340 27-513) with R453K
B10: S484F: recombinant Ndi1 mutant S484F (protein, UniProt P32340 27-513, looked up, variant S484F)
Rotenone-insensitive …: T1 sequence (P32340 27-513) with S458F
B11: S484I: recombinant Ndi1 mutant S484I (protein, UniProt P32340 27-513, looked up, variant S484I)
Rotenone-insensitive …: T1 sequence (P32340 27-513) with S458I

Key:
Ndi1 [1] = target: T1, Ndi1; parameters: method as in PMID 17200125; conditions: inhibition of Ndi1; cited from earlier work
Ndi1 [2] = target: T1, Ndi1; assay: Inhibition of NADH-ubiquinone-1 oxidoreductase activity of the purified Ndi1; type: biochemical; conditions: for IC50: NADH-ubiquinone-1 oxidoreductase activity, purified recombinant Ndi1, 100 µM NADH, pH 6.0, mean ± S.E.M of three independent experiments; for Inhibition mode: inhibition mode for ubiquinone-1, from intersection point in Lineweaver-Burk plots, 100 µM NADH; for Ki: non-linear regression of mixed type inhibition (GraphPad Prism 6), versus ubiquinone-1; for Ki / α (α > 0): mean ± S.D.; for α (α > 0): α of mixed model inhibition fit (αKi = dissociation constant of ternary enzyme-substrate-inhibitor complex)
Experimental: NADH-ubiquinone oxidoreductase activity was measured as described previously. In brief, the reaction was started by adding 100 µM NADH to the enzyme mixture containing 10 ng/mL Ndi1, 50 mM sodium phosphate (pH 6.0) and 1 mM EDTA, which was pre-incubated with various concentrations of ubiquinone-1 for 1 min. […] The concentrations of inhibitors required to obtain the half-maximal inhibition (IC50) were estimated by non-linear regression dose-response curves. The inhibition mode of each inhibitor for ubiquinone-1 was determined by the intersection point in double-reciprocal plots (Fig. 2B–E). To objectively evaluate the inhibition mode, the data of the inhibition kinetics were fitted to the Eq.
This equation provides two dissociation constants, one for the binary enzyme-inhibitor complex (Ki), the other for the ternary enzyme-substrate-inhibitor complex (αKi).

[3] = tested on: wild-type and mutant Ndi1; assay: Kinetic parameters of the oxidoreductase activity of wild-type and mutant Ndi1 for ubiquinone-1; type: biochemical, Saccharomyces cerevisiae; conditions: for Km: apparent Km for ubiquinone-1 (2.4–60 µM); for Km / Vmax: NADH fixed at 100 µM; for Vmax, % of the wild-type activity: relative to wild-type Ndi1; for Vmax: ubiquinone-1 as substrate (2.4–60 µM)
Experimental: This unique structure appears to be related to the competitive nature of the inhibition of Ndi1 oxidoreductase activity by stigmatellin. It is therefore hypothesized that L444, I459, R460, and S461, which interact with stigmatellin at the STG-1a site, are also involved in the binding of the substrate ubiquinone (Fig. 5). This hypothesis was evaluated by examining the effects of mutations of the proximal L444 and I459 on the kinetics of the enzymatic reaction of Ndi1. The effect of the mutation of S484, which specifically interacts with stigmatellin at the STG-1b site, was examined as a control. Furthermore, the effects of mutations of W63, P92, A393, Q394, H397, L447, Y482, M485, and L487, which interact with the aromatic head group of stigmatellin at the STG-1a and STG-1b sites, were also examined. Moreover, to investigate the functional role of the STG-2 site in ubiquinone binding, a mutation was also introduced to R479.
NADH-ubiquinone oxidoreductase activity was measured as described previously. In brief, the reaction was started by adding 100 µM NADH to the enzyme mixture containing 10 ng/mL Ndi1, 50 mM sodium phosphate (pH 6.0) and 1 mM EDTA, which was pre-incubated with various concentrations of ubiquinone-1 for 1 min. The decrease in 340 nm absorbance was measured as an indication of the oxidation of NADH (ε = 6.22 mM^−1 cm^−1) with a Shimadzu UV2000 spectrophotometer (Kyoto, Japan). The enzymatic activity obtained with 100 µM NADH and 60 µM ubiquinone-1 in the absence of any inhibitors (100% activity) catalyzed the oxidation of 1,890 μmol NADH/min/mg Ndi1. The concentrations of inhibitors required to obtain the half-maximal inhibition (IC50) were estimated by non-linear regression dose-response curves. The inhibition mode of each inhibitor for ubiquinone-1 was determined by the intersection point in double-reciprocal plots (Fig. 2B–E). To objectively evaluate the inhibition mode, the data of the inhibition kinetics were fitted to the Eq. (1) of mixed model inhibition in the Prism6 software program (GraphPad Software, Inc., La Jolla, CA).1 V=Vmax[S]/[S](1+[I]/αKi)+Km(1+[I]/Ki) […]
To determine the kinetic parameters of wild-type and mutant enzymes for ubiquinone-1, the NADH oxidation rates were measured in a fixed concentration of NADH (100 µM) and different concentrations of ubiquinone-1 (2.4–60 µM). Apparent Km and Vmax values were obtained by fitting a data set of initial velocity versus substrate concentration to the Michaelis-Menten model equation in the Prism6 software program.
Site-directed mutagenesis. The amino acid replacements of Ndi1 were basically performed with PrimeSTAR mutagenesis basal kit (Takara, Japan) using pET16b(NDI1-m) (2) and a synthetic oligonucleotide primer set (Table S2). The mutagenesis of H397 was performed with a QuikChange II XL site-directed mutagenesis kit (Stratagene, CA). Each mutation was confirmed through DNA sequencing (DNA sequencing service, Eurofins). The purification procedure of wild-type and mutant enzymes, used for the determination of the kinetic parameters (Table 2), was basically the same as the above procedure, without the replacement of the detergent from Triton X -100 with DDM. After washing the enzyme with buffer A containing 0.1% Triton X-100 and 15 mM histidine, 0.02% Triton X-100 was added to all buffer as a substitute for DDM. With the exception of 5 mutants containing L444D, I459A, […]
yield of the wild-type enzyme. […]

Row | Molecule | Km [3] | Vmax [3] | further results
1 | CCCCCCCCCCCc1cc(=O)c2ccccc2n1O [AC0-11, 1-hydroxy-2-undecyl-4(1 H) quinolone] |  |  | IC50 (Ndi1 [1]): 200 nM
2 | CCCCCCCCCCCCc1cc(=O)c2ccccc2n1O [AC0-12, 1-hydroxy-2-dodecyl-4(1 H) quinolone] |  |  | IC50 (Ndi1 [2]): 115 ± 18 nM; Inhibition mode (Ndi1 [2]): mixed; Ki (Ndi1 [2]): 14 ± 1.9 nM; α (α > 0) (Ndi1 [2]): 13.0±11.7
3 | CC(/C=C/[C@@]1(C)[C@H](C)CCC(=O)[C@@H]1C)=C\Cc1c(O)c(Cl)c(C)c(C=O)c1O [Ascochlorin, ascochlorin] |  |  | IC50 (Ndi1 [2]): 955 ± 139 nM; Inhibition mode (Ndi1 [2]): mixed; Ki (Ndi1 [2]): 728 ± 191 nM; α (α > 0) (Ndi1 [2]): 2.64±1.87
4 | C/C=C(C)/C=C/C=C/[C@H](OC)[C@@H](C)[C@@H](OC)[C@@H](C)CCc1oc2c(O)c(OC)cc(OC)c2c(=O)c1C [Stigmatellin, stigmatellin] |  |  | IC50 (Ndi1 [2]): 107 ± 21 nM; Inhibition mode (Ndi1 [2]): competitive; Ki (Ndi1 [2]): 93.9 ± 30.4 nM; α (α > 0) (Ndi1 [2]): ~6.33×10^20; α (α > 0) (Ndi1 [2]; listed as stigmatellin): close to infinity
5 | B1 | 24.5 ± 1.7 µM | 391 ± 3.3 µmol/min/mg | Vmax, % of the wild-type activity [3]: 37%
6 | B2 | 23.3 ± 2 µM | 1090 ± 45 µmol/min/mg | 
7 | B3 | 11.5 ± 0.58 µM | 316 ± 6.1 µmol/min/mg | Vmax, % of the wild-type activity [3]: 30%
8 | B4 | 22.7 ± 1 µM | 1060 ± 6.1 µmol/min/mg | 
9 | B5 | 27.7 ± 1.2 µM | 0.313 ± 0.007 µmol/min/mg | 
10 | B6 | 30.3 ± 2 µM | 11.1 ± 0.096 µmol/min/mg | 
11 | B7 | 23.9 ± 2 µM | 1333 ± 14 µmol/min/mg | 
12 | B8 | 23.5 ± 1.4 µM | 1.06 ± 0.035 µmol/min/mg | Vmax, % of the wild-type activity [3]: 0.1%
13 | B9 | 9.37 ± 0.48 µM | 305 ± 5.8 µmol/min/mg | Vmax, % of the wild-type activity [3]: 29%
14 | B10 | 24.5 ± 3.9 µM | 1160 ± 120 µmol/min/mg | 
15 | B11 | 25 ± 1.7 µM | 1010 ± 33 µmol/min/mg | 
